In PMC9009071, “Pyruvate kinase, a metabolic sensor powering glycolysis, drives the metabolic control of DNA replication” (BMC Biology, 2022):

Key:
PykA = biological target: T1, PykA (Bacillus subtilis, UniProt P80885); test: LDH-coupled NADH oxidation at […] nm, Michaelis-Menten fit; assay type: biochemical; settings: 2 mM ADP, 10 mM MgCl2, 50 mM KCl, 10 mM Tris-HCl pH 7.5, 25 °C; no effector added
T1 construct: gene pyk; full length, 585 residues (1755 bp); N-terminal His-MBP tag removed by TEV; E. coli Rosetta(DE3); homotetramer
T1 sequence (P80885 2-585): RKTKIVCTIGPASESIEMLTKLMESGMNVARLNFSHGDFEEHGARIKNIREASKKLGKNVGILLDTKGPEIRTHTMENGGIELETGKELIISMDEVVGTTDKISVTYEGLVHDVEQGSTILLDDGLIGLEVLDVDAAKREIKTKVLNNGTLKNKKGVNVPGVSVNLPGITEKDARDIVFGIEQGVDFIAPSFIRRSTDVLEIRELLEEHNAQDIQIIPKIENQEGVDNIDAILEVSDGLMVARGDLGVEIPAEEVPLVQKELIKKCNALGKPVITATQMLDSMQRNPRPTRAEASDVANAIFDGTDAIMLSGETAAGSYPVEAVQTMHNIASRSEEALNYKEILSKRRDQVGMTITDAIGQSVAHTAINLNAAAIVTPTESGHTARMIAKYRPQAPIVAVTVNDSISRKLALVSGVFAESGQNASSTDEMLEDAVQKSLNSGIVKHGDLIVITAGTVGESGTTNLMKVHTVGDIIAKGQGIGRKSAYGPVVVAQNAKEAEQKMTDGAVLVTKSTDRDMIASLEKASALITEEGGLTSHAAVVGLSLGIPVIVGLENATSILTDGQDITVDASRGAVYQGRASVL

purified protein = substrate: C=C(OP(=O)(O)O)C(=O)O; test: purified protein; assay type: biochemical, Bacillus subtilis; settings: 2 mM ADP, 10 mM MgCl2, 50 mM KCl, 10 mM Tris-HCl pH 7.5, 25 °C, no effector added, Hill coefficient n = 0.8111
[1] = biological target: the molecule itself; test: native MS; purified PykA, 4 uM, in 200 mM ammonium acetate pH 6.8; nano-electrospray on a modified Q-Tof; self-association (tetramer)
PykA (pyruvate kinase) = biological target: T2, PykA (pyruvate kinase) (Bacillus subtilis, UniProt P80885 1-585); test: EMSA; 1,250 nM PykA tetramer, 1 nM DNA, 10 mM Mg2+, no DnaE; EMSA: 50 mM Tris-HCl pH 7.5, 50 mM NaCl, 10 mM MgCl2, 10 min at 37 °C, 1 nM DNA; settings: protein: recombinant; tags: none (N-terminal His-MBP removed by TEV); chain copies: 4; label: 5'-32P on the 15mer; 15mer pairs with the 3' half of the 30mer; template 5' overhang 15 nt
T2 sequence: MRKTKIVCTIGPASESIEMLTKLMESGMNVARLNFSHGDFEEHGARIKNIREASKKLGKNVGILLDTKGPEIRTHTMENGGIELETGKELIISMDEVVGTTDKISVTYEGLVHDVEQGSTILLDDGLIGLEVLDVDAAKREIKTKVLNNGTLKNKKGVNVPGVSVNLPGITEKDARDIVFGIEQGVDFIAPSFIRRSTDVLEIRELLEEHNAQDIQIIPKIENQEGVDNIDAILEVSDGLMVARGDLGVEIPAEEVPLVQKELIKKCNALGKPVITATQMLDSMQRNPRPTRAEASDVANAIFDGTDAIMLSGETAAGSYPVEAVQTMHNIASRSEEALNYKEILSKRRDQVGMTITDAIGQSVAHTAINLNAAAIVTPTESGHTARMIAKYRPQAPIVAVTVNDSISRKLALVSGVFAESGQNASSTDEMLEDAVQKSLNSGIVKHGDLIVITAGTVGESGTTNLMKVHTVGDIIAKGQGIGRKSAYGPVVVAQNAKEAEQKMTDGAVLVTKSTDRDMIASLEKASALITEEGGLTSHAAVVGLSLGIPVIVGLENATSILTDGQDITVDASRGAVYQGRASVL

In the case of C=C(OP(=O)(O)O)C(=O)O [PEP], the Km (PykA) is reported as 1700 µM.

B1: PykA (Bacillus subtilis subsp. subtilis str. 168) (protein)
chain: T1 sequence (P80885 2-585)
notes: full length, 585 residues (1755 bp); N-terminal His-MBP tag removed by TEV; E. coli Rosetta(DE3); homotetramer
Molecule B1 has a K0.5 (purified protein) of 2.7 mM.

B2: Bacillus subtilis pyruvate kinase PykA (enzyme, UniProt P80885 1-585, looked up)
chain: T2 sequence
notes: Pyruvate kinase PykA of Bacillus subtilis; 1755 bp fragment carrying the pykA gene amplified from genomic DNA and cloned in p2CT; theoretical monomer mass 62,314.9 Da; The forward primer PyKAF starts at the codon for Arg2 (AGA AAA ACT ...), so the first methionine is probably absent; A few vector residues probably remain after TEV cleavage; also called full length PykA; BsuPykA; source: E. coli …
In the case of B2, the “stoichiometry N” value [1] is reported as 4.

B3: 15mer primer annealed to 30mer template (dsDNA)
DNA 1: AAGGGGGTGTGTGTG
DNA 2: ACACACACACACACACACACACACCCCCTT
B3: no binding (PykA (pyruvate kinase)).
